According to the supplement of paper PMC11246515:
± gives the standard deviation of the averaged measurements.

Assay: total protein half-life in vivo (active degradation + dilution); higher = more stable protein
[1] = E. coli NCM3722 delta-clpP delta-lon delta-hslV, growth: N-lim chemostat, doubling time 6 h
[2] = E. coli NCM3722 delta-clpP, growth: N-lim chemostat, doubling time 6 h
[3] = E. coli NCM3722 delta-hslV, growth: N-lim chemostat, doubling time 6 h
[4] = E. coli NCM3722 delta-lon, growth: N-lim chemostat, doubling time 6 h
[5] = E. coli NCM3722 delta-smpB, growth: N-lim chemostat, doubling time 6 h
[6] = wild type E. coli NCM3722, growth: C-lim chemostat, doubling time 3 h
[7] = wild type E. coli NCM3722, growth: C-lim chemostat, doubling time 6 h
[8] = wild type E. coli NCM3722, growth: C-lim chemostat, doubling time 12 h
[9] = wild type E. coli NCM3722, growth: N-lim chemostat, doubling time 6 h
[10] = wild type E. coli NCM3722, growth: N-lim chemostat, doubling time 12 h
[11] = wild type E. coli NCM3722, growth: P-lim chemostat, doubling time 6 h
[12] = wild type E. coli NCM3722, growth: P-lim chemostat, doubling time 12 h

Sequence	total protein half-life in vivo [1]	total protein half-life in vivo [2]	total protein half-life in vivo [3]	total protein half-life in vivo [4]	total protein half-life in vivo [5]	total protein half-life in vivo [6]	total protein half-life in vivo [7]	total protein half-life in vivo [8]	total protein half-life in vivo [9]	total protein half-life in vivo [10]	total protein half-life in vivo [11]	total protein half-life in vivo [12]
MQFSTTPTLEGQTIVEYCGVVTGEAILGANIFRDFFAGIRDIVGGRSGAYEKELRKAREIAFEELGSQARALGADAVVGIDIDYETVGQNGSMLMVSVSGTAVKTRR [P0A8C1]	4.49 ± 0.27 h	4.01 ± 0.34 h	3.9 ± 0.47 h	4.39 ± 0.13 h	4.26 ± 0.15 h	2.918 ± 0.013 h	5.49 ± 0.17 h	10.2 ± 3.2 h	3.84 ± 0.47 h	6.45 ± 0.22 h	5.53 ± 0.24 h	12.2 ± 0.14 h
MQILKVIGLLMEYPDELLWECKEDALALIRRDAPMLTDFTHNLLNAPLLDKQAEWCEVFDRGRTTSLLLFEHVHAESRDRGQAMVDLLAEYEKVGLQLDCRELPDYLPLYLEYLSVLPDDQAKEGLLNVAPILALLGGRLKQREAPWYALFDALLQLAGSSLSSDSVTKQVNSEERDDTRQALDAVWEEEQVKFIEDNATACDSSPLNQYQRRFSQDVAPQYVDISAGGGK	3.93 ± 0.43 h	1.45 h	0.577 h	0.917 h	0.553 h	–	1.45 ± 0.12 h	1.78 h	0.752 ± 0.1 h	0.75 h	–	1.94 ± 0.61 h
MQKKSIYVAYTGGTIGMQRSEQGYIPVSGHLQRQLALMPEFHRPEMPDFTIHEYTPLMDSSDMTPEDWQHIAEDIKAHYDDYDGFVILHGTDTMAYTASALSFMLENLGKPVIVTGSQIPLAELRSDGQINLLNALYVAANYPINEVTLFFNNRLYRGNRTTKAHADGFDAFASPNLPPLLEAGIHIRRLNTPPAPHGEGELIVHPITPQPIGVVTIYPGISADVVRNFLRQPVKALILRSYGVGNAPQNKAFLQELQEASDRGIVVVNLTQCMSGKVNMGGYATGNALAHAGVIGGADMTVEATLTKLHYLLSQELDTETIRKAMSQNLRGELTPDD [P0A962]	5.54 ± 0.6 h	5.31 ± 0.36 h	6.03 ± 0.21 h	5.69 ± 0.17 h	5 ± 0.11 h	3.18 ± 0.034 h	5.81 ± 0.83 h	12 ± 1.2 h	5.74 ± 0.28 h	10.9 ± 0.4 h	5.81 ± 0.6 h	11.5 ± 1.4 h
MQKVKLPLTLDPVRTAQKRLDYQGIYTPDQVERVAESVVSVDSDVECSMSFAIDNQRLAVLNGDAKVTVTLECQRCGKPFTHQVYTTYCFSPVRSDEQAEALPEAYEPIEVNEFGEIDLLAMVEDEIILALPVVPVHDSEHCEVSEADMVFGELPEEAQKPNPFAVLASLKRK [P0AB28]	5.71 ± 1.6 h	5.08 ± 1.3 h	3.49 ± 0.1 h	3.58 ± 0.24 h	3.21 ± 0.78 h	1.93 ± 0.19 h	4.48 ± 0.12 h	7.12 ± 0.54 h	3.66 ± 0.32 h	5.22 ± 0.26 h	4.32 ± 0.3 h	8.64 ± 0.14 h
MQLRKPATAILALALSAGLAQADDAAPAAGSTLDKIAKNGVIVVGHRESSVPFSYYDNQQKVVGYSQDYSNAIVEAVKKKLNKPDLQVKLIPITSQNRIPLLQNGTFDFECGSTTNNVERQKQAAFSDTIFVVGTRLLTKKGGDIKDFANLKDKAVVVTSGTTSEVLLNKLNEEQKMNMRIISAKDHGDSFRTLESGRAVAFMMDDALLAGERAKAKKPDNWEIVGKPQSQEAYGCMLRKDDPQFKKLMDDTIAQVQTSGEAEKWFDKWFKNPIPPKNLNMNFELSDEMKALFKEPNDKALN	6.32 ± 0.97 h	6.45 ± 1.6 h	6.8 ± 0.39 h	7.14 ± 0.3 h	6.02 ± 0.43 h	3.26 ± 0.14 h	6.76 ± 0.34 h	11.3 ± 0.22 h	5.9 ± 0.54 h	14.1 ± 0.48 h	5.81 ± 0.41 h	13.2 ± 0.35 h
MQNAGSLVVLGSINADHILNLQSFPTPGETVTGNHYQVAFGGKGANQAVAAGRSGANIAFIACTGDDSIGESVRQQLATDNIDITPVSVIKGESTGVALIFVNGEGENVIGIHAGANAALSPALVEAQRERIANASALLMQLESPLESVMAAAKIAHQNKTIVALNPAPARELPDELLALVDIITPNETEAEKLTGIRVENDEDAAKAAQVLHEKGIRTVLITLGSRGVWASVNGEGQRVPGFRVQAVDTIAAGDTFNGALITALLEEKPLPEAIRFAHAAAAIAVTRKGAQPSVPWREEIDAFLDRQR [P0A9J6]	–	6.07 ± 2.1 h	4.44 ± 0.042 h	4.91 ± 0.38 h	4.54 ± 0.2 h	3.14 ± 0.1 h	5.66 ± 0.076 h	11.8 ± 0.53 h	4.74 ± 0.36 h	7.76 ± 0.41 h	5.878 ± 0.056 h	11.9 ± 0.91 h
